In patent publication US20220033520A1:

What was measured:
[1] = target: human FcRn (FCGRT and beta-2 microglobulin) expressed on MDCK II cells (human) (UniProt P55899); experiment: cell-based or functional assay
[2] = target: human FcRn complex (FCGRT and beta-2 microglobulin), recombinant, purified (human) (UniProt P55899); experiment: SPR, protein L capture, pH 6, kinetic
[3] = target: human FcRn complex (FCGRT and beta-2 microglobulin), recombinant, purified (human) (UniProt P55899); experiment: SPR, protein L capture, pH 7.4, steady state
[4] = target: human FcRn complex (FCGRT and beta-2 microglobulin), recombinant, purified (human) (UniProt P55899); experiment: SPR, anti-human Fab capture, pH 6, steady state
[5] = target: human FcRn complex (FCGRT and beta-2 microglobulin), recombinant, purified (human) (UniProt P55899); experiment: SPR, anti-human Fab capture, pH 7.4, steady state

Sequence of antibody comprising wild-type hIgG4 (Table 2) (Fc): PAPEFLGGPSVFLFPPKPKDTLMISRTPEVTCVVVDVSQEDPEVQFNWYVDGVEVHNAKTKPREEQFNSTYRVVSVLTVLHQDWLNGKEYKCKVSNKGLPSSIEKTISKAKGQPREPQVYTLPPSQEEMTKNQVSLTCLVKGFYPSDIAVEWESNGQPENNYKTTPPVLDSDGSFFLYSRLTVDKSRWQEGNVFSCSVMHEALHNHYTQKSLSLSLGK

Row | Substance | Transcytosis Normalized to WT (normalized to WT) [1] | Kd [2] [µM] | koff [2] [s⁻¹] | kon [2] [M⁻¹ s⁻¹] | Kd [3] [µM] | Kd [4] [µM] | Kd [5] [µM]
1 | anti-BACE1 hIgG1 antibody, Fc modification S6 (Q311I) | 1.7 | 0.171 | 0.00157 | 9190 | – | – | –
2 | anti-BACE1 hIgG1 antibody, Fc modification Q4 (M252Y/Q311I/M428L/N434Y) | 159 | 0.0573 | 0.0107 | 186000 | 1.27 | – | –
3 | anti-BACE1 hIgG1 antibody, Fc modification T26 (H433K/N434Y/Y436I) | 71 | – | – | – | – | – | –
4 | anti-BACE1 hIgG1 antibody, Fc modification T9 (T307Q/Q311I/N434Y) | 140 | 0.52 | 0.00767 | 14800 | 1.93 | – | –
5 | anti-BACE1 hIgG1 antibody, Fc modification T1 (M252Y/T307Q/N434Y) | 125 | 0.012 | 0.0101 | 874000 | 0.461 | – | –
6 | anti-BACE1 hIgG1 antibody, Fc modification S11 (N434Y) | 7.8 | 0.0736 | 0.0141 | 191000 | – | – | –
7 | anti-BACE1 hIgG1 antibody, Fc modification Q5 (M252Y/Q311I/N434Y/Y436I) | 133 | 0.00509 | – | – | 0.252 | 0.0088 | –
8 | antibody comprising wild-type hIgG1 (Table 2) | 1 | 0.732 | 0.0164 | 22300 | – | – | –
9 | anti-BACE1 hIgG1 antibody, Fc modification S4 (H310A) | 1.1 | – | – | – | – | – | –
10 | anti-BACE1 hIgG1 antibody, Fc modification T7 (T307Q/N286E/N434Y) | 91 | 0.019 | 0.0177 | 931000 | 1.12 | – | –
11 | anti-Abeta hIgG1 antibody, Fc modification D1 (M252Y/N434Y) | – | – | – | – | – | 0.014 | 1.15
12 | anti-BACE1 hIgG4 antibody, Fc modification Q2 (M252Y/T307Q/M428L/N434Y) | – | – | – | – | – | 0.0066 | 0.37
13 | anti-Abeta hIgG1 antibody, Fc modification Q2 (M252Y/T307Q/M428L/N434Y) | – | – | – | – | – | 0.0102 | 0.482
14 | anti-BACE1 hIgG1 antibody, Fc modification T19 (Q311A/H433K/N434Y) | 55 | 0.0535 | 0.0096 | 179000 | 4.48 | – | –
15 | anti-Abeta hIgG1 antibody, Fc modification Q95 (M252Y/T307Q/Q311A/N434Y) | – | – | – | – | – | 0.0082 | 0.34
16 | anti-Abeta hIgG1 antibody, Fc modification T3 (M252Y/Q311I/N434Y) | – | – | – | – | – | 0.0116 | 0.554

Row | Substance | Transcytosis Normalized to WT (normalized to WT) [1] | Kd [2] [µM] | koff [2] [s⁻¹] | kon [2] [M⁻¹ s⁻¹] | Kd [3] [µM] | Kd [4] [µM] | Kd [5] [µM]
17 | anti-BACE1 hIgG1 antibody, Fc modification T94 (M252Y/N286E/N434Y) | 87 | 0.0136 | – | – | 0.452 | – | 0.38
18 | anti-Abeta hIgG4 antibody, Fc modification Q3 (M252Y/T307Q/N434Y/Y436I) | – | – | – | – | – | 0.0059 | 0.158
19 | anti-BACE1 hIgG1 antibody, Fc modification T2 (M252Y/Q311A/N434Y) | 111 | 0.02 | 0.0178 | 908000 | 0.614 | – | –
20 | anti-BACE1 hIgG1 antibody, Fc modification S12 (Y436I) | 1.8 | 0.201 | 0.00193 | 9590 | – | – | –
21 | anti-Abeta hIgG1 antibody, Fc modification Q6 (M252Y/M428L/N434Y/Y436I) | – | – | – | – | – | 0.0102 | 0.367
22 | anti-BACE1 hIgG4 antibody, Fc modification T6-IgG4 (M252Y/N434Y/Y436I) | 66 | – | – | – | 0.412 | – | –
23 | antibody comprising modified Fc M428L/N434A (LA) (Table 2) | 5.1 | 0.0992 | 0.00371 | 37400 | – | – | –
24 | anti-BACE1 hIgG1 antibody, Fc modification T12 (T307Q/N434Y/Y436I) | 112 | – | – | – | – | – | –
25 | anti-BACE1 hIgG1 antibody, Fc modification D92 (M252W/N434W) | 92 | 0.0124 | 0.0074 | 595000 | 0.76 | – | –
26 | anti-Abeta hIgG1 antibody, Fc modification Q1 (M252Y/T307Q/Q311I/N434Y) | – | – | – | – | – | 0.0127 | 0.206
27 | anti-BACE1 hIgG1 antibody, Fc modification S1 (M252Y) | 1.7 | 0.117 | 0.00172 | 14700 | – | – | –
28 | anti-BACE1 hIgG1 antibody, Fc modification S8 (H433K) | 2.9 | 0.363 | 0.0048 | 13200 | – | – | –
29 | anti-BACE1 hIgG1 antibody, Fc modification T13 (N286E/Q311A/N434Y) | 108 | 0.038 | 0.0327 | 852000 | 2.45 | – | –
30 | anti-Abeta hIgG1 antibody, Fc modification Q3 (M252Y/T307Q/N434Y/Y436I) | – | – | – | – | – | – | 0.206
31 | anti-BACE1 hIgG1 antibody, Fc modification T6 (M252Y/N434Y/Y436I) | 133 | – | – | – | 0.459 | – | –
32 | anti-Abeta hIgG4 antibody, Fc modification Q2 (M252Y/T307Q/M428L/N434Y) | – | – | – | – | – | – | 0.339

Next, values leading:

Row | Transcytosis Normalized to WT (normalized to WT) [1] | Kd [2] [µM] | koff [2] [s⁻¹] | kon [2] [M⁻¹ s⁻¹] | Kd [3] [µM] | Kd [4] [µM] | Kd [5] [µM] | Substance
33 | 140 | – | – | – | – | – | – | anti-BACE1 hIgG1 antibody, Fc modification T18 (Q311A/M428L/N434Y)
34 | 112 | 0.034 | 0.0357 | 1.05e+06 | 0.73 | – | – | anti-BACE1 hIgG1 antibody, Fc modification T5 (M252Y/H433K/N434Y)
35 | 100 | 0.03 | 0.0201 | 660000 | 2.2 | – | – | anti-BACE1 hIgG1 antibody, Fc modification T4 (M252Y/M428L/N434Y)
36 | – | – | – | – | – | 0.0063 | 0.165 | anti-Abeta hIgG4 antibody, Fc modification Q1 (M252Y/T307Q/Q311I/N434Y)
37 | 65 | 0.037 | 0.0166 | 445000 | 4.8 | – | – | anti-BACE1 hIgG1 antibody, Fc modification T11 (T307Q/H433K/N434Y)
38 | – | – | – | – | – | – | 0.151 | anti-Abeta hIgG4 antibody, Fc modification Q5 (M252Y/Q311I/N434Y/Y436I)
39 | 2 | 0.178 | 0.00202 | 11300 | – | – | – | anti-BACE1 hIgG1 antibody, Fc modification S7 (M428L)
40 | 55 | 0.0667 | 0.0271 | 406000 | 4.98 | – | – | anti-BACE1 hIgG1 antibody, Fc modification T16 (N286E/H433K/N434Y)
41 | 131 | 0.064 | – | – | 9.03 | – | – | anti-BACE1 hIgG1 antibody, Fc modification T22 (Q311I/H433K/N434Y)
42 | 73 | 0.036 | 0.0278 | 772000 | 3.11 | – | – | anti-BACE1 hIgG1 antibody, Fc modification T14 (N286E/Q311I/N434Y)
43 | 64 | 0.037 | 0.0319 | 854000 | 1.68 | – | – | anti-BACE1 hIgG1 antibody, Fc modification T8 (T307Q/Q311A/N434Y)
44 | 94 | 0.00354 | 0.00314 | 887000 | 0.123 | – | – | anti-BACE1 hIgG1 antibody, Fc modification T96 (M252Y/V308P/N434Y)
45 | 26 | 0.0549 | 0.051 | 929000 | 5.53 | – | – | anti-BACE1 hIgG1 antibody, Fc modification S10 (N434W)
46 | 1.7 | 0.303 | 0.00316 | 10400 | – | – | – | anti-BACE1 hIgG1 antibody, Fc modification S2 (N286E)
47 | 6.3 | 0.1 | 0.0419 | 418000 | – | – | – | anti-BACE1 hIgG1 antibody, Fc modification S9 (N434F)
48 | – | – | – | – | – | 0.0108 | 0.265 | anti-Abeta hIgG1 antibody, Fc modification Q5 (M252Y/Q311I/N434Y/Y436I)
49 | 9.4 | 0.0922 | 0.00192 | 20800 | – | – | – | anti-BACE1 hIgG1 antibody, Fc modification D7 (H433K/N434Y)
50 | 1 | 0.563 | 0.0119 | 21100 | – | – | – | antibody comprising wild-type hIgG4 (Table 2)
51 | 65 | 0.053 | 0.0334 | 631000 | 6.08 | – | – | anti-BACE1 hIgG1 antibody, Fc modification T17 (N286E/N434Y/Y436I)
